Experimental data published in the supplement of paper PMC12042874.
± gives the uncertainty stated by the source.

Test: amyloid nucleation score (Sup35N fusion, yeast selection) (log enrichment); library NNK3; higher = more nucleation; inactive = no reads after selection
How it was run: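 The nucleation score is a DiMSum log enrichment of output over input reads, centred on the mode score of non-aggregating sequences. Sequences under 100 input reads were excluded, and reads came from Illumina sequencing of plasmid inserts. Psi-negative yeast expressing Sup35N fused to peptides of 20 random codons were induced with 100 μM copper sulfate for 24 hours and grown 7 days at 30°C on medium lacking adenine and uracil. Random libraries had three technical output replicates.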

| Substance | amyloid nucleation score |
| --- | --- |
| VSFRYAYYWFCRTMMTAAKR | inactive |
| VSGYNW | inactive |
| VSIHCGRVYDWEGGFGERVN | inactive |
| VSLGFEFMGFHAGW | 1.09 ± 0.15 |
| VSLILFGRIFFHL | inactive |
| VSLLRGVLGLVV | inactive |
| VSMFMNRNQKSIKNRVRHYM | inactive |
| VSMSLDCM | inactive |
| VSNCFTSLQT | inactive |
| VSRHKFFRHSCAN | inactive |
| VSRKRQLWEKCGTFVQRASM | inactive |
| VSSFFSLPCTSAPVIDWVGV | inactive |
| VSSILQRIISYFRTARFNYL | inactive |
| VSSSDNSVEIDRVHKMSMVE | inactive |
| VSSWNSSMMIYMVLCIRMSG | inactive |
| VSTCT | inactive |
| VSTGTYFSVIKEEVRLGLLH | 0.537 ± 0.36 |
| VSVDWGLPRFGYTYKIL | inactive |
| VSVLCMYFVVGPKMVRVSYG | inactive |
| VSVRVDLILKVVRRSSVWFT | inactive |
| VSYSNDKGIWIYGTSLYPGA | inactive |
| VTCWMVAVELKKIHYQCIES | inactive |
| VTEYKFKVFLPMRKRSVIMV | inactive |

| Substance | amyloid nucleation score |
| --- | --- |
| VTKPFTIKGTI | inactive |
| VTKVYGDVVLEWRHDVLFGG | 0.503 ± 0.32 |
| VTLVNKKGWSFATAITMWKR | inactive |
| VTQSNGVHKGAR | inactive |
| VTRISGTETSDVYINI | 0.101 ± 0.6 |
| VTRPVVSQ | inactive |
| VTSTQVMNMLD | inactive |
| VTVSHCRIRFFRLESDDGLC | -0.218 ± 0.88 |
| VTYYKSMYTREHFWTLGNSF | 0.69 ± 0.21 |
| VVEFRNFLGIM | inactive |
| VVGFDSCGRWEVNVSYDSGT | inactive |
| VVGIKKDRNNTYDSSWLASC | inactive |
| VVGSDGMFTCSCLREVR | inactive |
| VVHYSLVVPSDGW | inactive |
| VVLTMMHRHLYVSCKLRFCS | inactive |
| VVMHAYCWLWNYSDFSIMGS | 1.57 ± 0.094 |
| VVMRFCWRKSTIVISFVTVM | inactive |
| VVMSWYLVVTI | 0.883 ± 0.26 |
| VVQGGGELVWFMFYDARCGT | inactive |
| VVSAV | inactive |
| VVSFNPIKCIVCGV | inactive |
| VVSHGF | inactive |
| VVSIAIGKYNDRSMWW | 1.75 ± 0.071 |

| Substance | amyloid nucleation score |
| --- | --- |
| VVSMQYCLFS | 2.81 ± 0.072 |
| VVTHLALSKRSSAVTIFAWG | inactive |
| VVVGIGVAALYEPV | inactive |
| VWEFICVGVLC | 2.65 ± 0.05 |
| VWGAHPLFGSISVARTISNW | inactive |
| VWPNGSKKYGLSRMTANSLL | inactive |
| VWQWKGRCHVTNRYWYFCSS | inactive |
| VWSEDIYFCIILRLMDKS | inactive |
| VWSVASYPSGPGKFCGGMTE | inactive |
| VWVDFGFPVHMIIL | inactive |
| VYASCTFNIEKVLSVVQTTF | 1.52 ± 0.087 |
| VYCEPNMP | -0.163 ± 1.1 |
| VYESFLLMLFYFRSDCKKKR | inactive |
| VYETELTFSARPRFCWCC | 0.094 ± 0.59 |
| VYGASTLSAHMWR | inactive |
| VYGYELRCDLKGMLLS | inactive |
| VYIMYLSGCCRCHVPMNEGT | 2.05 ± 0.073 |
| VYLDYGGLHLRVLHTCRFYC | inactive |
| VYLYIWQKVSGHHYGFQMDW | inactive |
| VYMGTVWCSRAI | inactive |
| VYPSTSTLNYVMLQLTPVNS | inactive |
| VYSDDVKVVYMYGTNPFDTV | inactive |
| VYSEFWVHMLLLSFRVIYIL | inactive |

| Substance | amyloid nucleation score |
| --- | --- |
| VYSMEPECIW | inactive |
| WAGGSDPRCNFKCLCVKGFC | inactive |
| WAVIKLMRSERTVGVWGSNT | inactive |
| WCFHDGLRAYVNFCRVYATN | inactive |
| WCLPNCPIVFNMHQLAHLSR | 0.021 ± 0.44 |
| WCNMVRVHMF | inactive |
| WCPSQDNFWQNFLF | -0.079 ± 0.23 |
| WCPSSSM | inactive |
| WDAPKCNSVNYLLKDHYHRC | inactive |
| WDEIIY | inactive |
| WDIMSRYLCMYIGYTARRCM | inactive |
| WDKMYDDEGKGIVLEVVFLR | -0.012 ± 0.87 |
| WDNLCGTAFHAVN | inactive |
| WEGRLDCFSMRWLQMLGSND | inactive |
| WEILYPEGWFWTFRRSGVGS | inactive |
| WEKYMRMSGRPMGRFKMTGR | inactive |
| WFDWVMVTYEGLSTVF | inactive |
| WFEEATRGRNETS | inactive |
| WFFDTDIFHCEFEKMYYPLV | inactive |
| WFFTLCSSDQVSRGMR | inactive |
| WFGKPFYTYSKSSWRMLYQL | inactive |
| WFISTFDLDRYKFASCSKAW | inactive |
| WFPMSAKLYAHATHCVPLSL | inactive |

| Substance | amyloid nucleation score |
| --- | --- |
| WFRTGLAKNSISSGVGVMCH | inactive |
| WFSYQFV | inactive |
| WGMICIVYCVGIDMWLYVKC | inactive |
| WGTLTLCTGDAGLSMTGKWV | 0.399 ± 0.43 |
| WGVHCMSQDVRVWWLSLWGG | inactive |
| WGVNYMLWDCIYEATLSLIP | inactive |
| WHCVSFKLNDL | inactive |
| WHMWMESKLWQPQRATSVFP | inactive |
| WHSYTKLCGRTSPPSSTLTG | inactive |
| WHTAKGTWSTGRQEDTGQSR | inactive |
| WIDGINWLSSLVTAIKHSVK | inactive |
| WIGVQCP | inactive |
| WIMWNMRAKNLKLLPARARV | inactive |
| WKEWLGMGLLVSNAGHKQGG | inactive |
| WKFINDIASN | inactive |
| WKGLL | inactive |
| WKYRMTQRPQMVNWNVLRYE | inactive |
| WLFAIFGDGAVFGSYGGWGV | inactive |
| WLRRN | inactive |
| WLSGACEPPF | 0.718 ± 0.28 |
| WLSRLVGFALSTKLGP | inactive |
| WLSRPLCIIGWASRSMRGSH | inactive |
| WLVGFLFILWV | inactive |

| Substance | amyloid nucleation score |
| --- | --- |
| WLVGICWNWRWHLAVAGVVG | inactive |
| WLWVGIGLRSYELLNEEW | inactive |
| WMDIYW | 0.403 ± 0.24 |
| WMDNAI | inactive |
| WMGSVCSFRSIPCSMSTLR | inactive |
| WMMMNFHLSMQD | 1.6 ± 0.087 |
| WMPDPRVCQKMFVMCKHSP | inactive |
| WMVNVTGWISHGRFGYNFLI | inactive |
| WMYRKTSNRICCLPRESVNP | inactive |
| WNRTEDMR | inactive |
| WNTGNMLPSVFTQMFA | inactive |
| WNYPFNFQF | inactive |
| WPLYNFVISWIGRTYYSVYL | inactive |
| WRAAIEDASLFIERIHNNSS | inactive |
| WRDFLYLRHGFQYGIRPMSE | inactive |
| WRFFDVDNNMSTHVLKQLRC | inactive |
| WRKTRGLNILRLWSLVSFRM | inactive |
| WRRLRATISNGAWD | inactive |
| WRTFLCWYVLGPKTSFEYGR | inactive |
| WRVSLWLGWNLFWTCSNPAD | inactive |
| WSIMSLNFRVDTHYSVHRYV | 1.95 ± 0.099 |
| WSRHSTMGTRPEKQVLWPAG | inactive |
| WSRLDMMLRLLAVLLPVRLD | inactive |

| Substance | amyloid nucleation score |
| --- | --- |
| WSRSNGVFVGGRNCFLAQDF | inactive |
| WSSSS | inactive |
| WSVGATWVVAFA | inactive |
| WSVSKCDVLGLNSDVFKLWL | inactive |
| WVCTVVLVKDLPPRRSVLVG | inactive |
| WVCYNKFSVCVWLVDKAD | 2.01 ± 0.095 |
| WVQVRRVKIE | inactive |
| WVSSFTVAWKGGKQRVITVE | inactive |
| WVVKKVPDGRFLFVDCVCGI | inactive |
| WVVRYMDYSLMD | inactive |
| WWCLFWVSWN | inactive |
| WWNLWSPAATATRRCY | -0.462 ± 0.9 |
| WWRKPLTFNDRIWRLRKHRS | inactive |
| WWSYQGRLVGCGYMRTDNAP | inactive |
| WYAKCCKV | inactive |
| WYALYSIWVKHTHLCERTVE | inactive |
| WYPGMCFESVDTMDRHLHND | inactive |
| WYRLRYSQST | inactive |
| WYSYPNFG | inactive |
| YAALILGVVQCAGLILFYVI | inactive |
| YACMCLCELSASYKLDTMC | inactive |
